Experiment [1] deals with recombinant bovine Casq1 (non-glycosylated) (bovine (B. taurus)). Nature of the experiment: SEC-MALS; 50 µM Casq1 on Yarra 3u SEC-2000, 20 mM MOPS, 300 mM KCl, 0.05 g/dL NaN3, pH 7.2, 2 mM CaCl2. (In general: SEC sorts molecules by how far they enter the pores of the column.)
Experiment [2] has the same target. Nature of the experiment: crystal structure; high-Ca2+ form: protein incubated with 5 mM Ca2+ before mixing (2.5 mM in the drop); hanging drop, 4 °C, 0.1 M HEPES, 0.2 M NaCl, 27.5% MPD, pH 7.0.
Experiment [3] deals with native bovine Casq1 (skeletal muscle calsequestrin, glycosylated) (bovine (B. taurus)). In words: SEC-MALS; 50 µM Casq1 on Yarra 3u SEC-2000, 20 mM MOPS, 300 mM KCl, 0.05 g/dL NaN3, pH 7.2, 2 mM CaCl2.
Experiment [4] has the same target. In words: crystal structure; high-Ca2+ form: protein incubated with 5 mM Ca2+ before mixing (2.5 mM in the drop); hanging drop, 4 °C, 0.1 M HEPES, 0.2 M NaCl, 27.5% MPD, pH 7.0.
Experiment [5] shares this target. In words: SEC-MALS; 50 µM Casq1 on Yarra 3u SEC-2000, 20 mM MOPS, 300 mM KCl, 0.05 g/dL NaN3, pH 7.2, 1 mM CaCl2.

The term stoichiometry N denotes a count of units in the complex or per binding partner. Regarding “recombinant bovine Casq1 (non-glycosylated) (natural protein)”, the stoichiometry N in experiment [1] came out at 2; in experiment [2], 6.
Regarding “native bovine Casq1 (skeletal muscle calsequestrin, glycosylated) (natural protein)”, the stoichiometry N was determined as 4 in experiment [3], 6 in experiment [4] and 2 in experiment [5].

Values taken from paper PMC5037814.
